According to patent US20250341513A1, “Bordetella T Cells Epitopes, Megapools and Uses Thereof” (LA JOLLA INSTITUTE FOR IMMUNOLOGY, priority 2022, published 2025):

Test system: CD4+ T cells
Assay: BP genome-wide peptide library screening by ex vivo AIM assay; epitope and antigen (ORF) reactivity and donor recognition
Type: cell-based, human
Conditions: for frequency of donor recognition: entire cohort (n=40); for magnitude, % of total response: sum of reactivity of individual epitopes per ORF/antigen across entire cohort (n=40), FIG. 3; for % of Donor response / % of Total magnitude: immunodominant antigens (ORFs); for % of Donor response: frequency of donors recognising the antigen; for % of Total magnitude: share of total CD4+ T cell response magnitude in the genome-wide screen

Row | Molecule | frequency of donor recognition | magnitude, % of total response | % of Donor response | % of Total magnitude
1 | filamentous hemagglutinin [FHA] | 45.0 % of donors | 2.12 % of total response |  | 
2 | Fim 2: fimbrial protein 2, aP vaccine antigen (protein, UniProt P05788 27-207, looked up) Serotype 2 fimbrial subunit: DDGTIVITGTITDTTCVIEDPSGPNHTKVVQLPKISKNALKANGDQAGRTPFIIKLKDCPSSLGNGVKAYFEPGPTTDYSTGDLRAYKMVYATNPQTQLSNITAATEAQGVQVRISNLNDSKITMGANEATQQAAGFDPEVQTGGTSRTVTMRYLASYVKKNGDVEASAITTYVGFSVVYP | 5 % of donors | 0.09 % of total response |  | 
3 | Membrane protein insertase YidC (protein, UniProt P65622 1-563, looked up) Membrane protein insertase …: MDIRRTVLWMIFSFSLLLLWNNWQIHNGKPSLFGGPAPEAAATQQPKADANGTAASSTASIPSSPAAAPAAASVPGAAAPAAAKSEQVVITTDVLRLTFDSNGAQLIRAELLKYPSSSQSDKPTVLMDRSADLVYVAQTGVVGAPQGESFPTHQTPFHLVSSERSLTGDTLDVVFEAESGGLKVTKTYTLHRGRYDVDVRHAMANTGGAPLNPALYLQLERDGTDPAGTSSFYHTFTGVAVYSEQDKFQKVTFSDIEKKKGTYIKQADNGWIGIVQHYFATAWIPAQGKQRTNELLQVQQNLYAARTIEAVGTIAPGSSANVDAHLWVGPQDQKAMAAVAPGLELVVDYGWLTIIAKPLFTLMTWLHGLLGNWGWTIVALTVIIKAVFFPLAAASYRSMARMKQVAPRLQALKEKYGDDRQKLNQAMMEMYRTEKINPLGGCLPMVVQIPVFIALYWVLLASVEMRGAPWILWVHDLSVRDPFFILPAIMMATMFLQIKLNPTPPDPVQAKVMMIMPLVFGGMMFFFPAGLVLYWCVNNTLSIAQQWTITRNLERQAAAAANR |  |  | 17.5% | 1.35%
4 | pertactin (protein, UniProt P14283 35-910, looked up, aP vaccine antigen of B. pertussis) Pertactin autotransporter: DWNNQSIVKTGERQHGIHIQGSDPGGVRTASGTTIKVSGRQAQGILLENPAAELQFRNGSVTSSGQLSDDGIRRFLGTVTVKAGKLVADHATLANVGDTWDDDGIALYVAGEQAQASIADSTLQGAGGVQIERGANVTVQRSAIVDGGLHIGALQSLQPEDLPPSRVVLRDTNVTAVPASGAPAAVSVLGASELTLDGGHITGGRAAGVAAMQGAVVHLQRATIRRGDAPAGGAVPGGAVPGGAVPGGFGPGGFGPVLDGWYGVDVSGSSVELAQSIVEAPELGAAIRVGRGARVTVSGGSLSAPHGNVIETGGARRFAPQAAPLSITLQAGAHAQGKALLYRVLPEPVKLTLTGGADAQGDIVATELPSIPGTSIGPLDVALASQARWTGATRAVDSLSIDNATWVMTDNSNVGALRLASDGSVDFQQPAEAGRFKVLTVNTLAGSGLFRMNVFADLGLSDKLVVMQDASGQHRLWVRNSGSEPASANTLLLVQTPLGSAATFTLANKDGKVDIGTYRYRLAANGNGQWSLVGAKAPPAPKPAPQPGPQPPQPPQPQPEAPAPQPPAGRELSAAANAAVNTGGVGLASTLWYAESNALSKRLGELRLNPDAGGAWGRGFAQRQQLDNRAGRRFDQKVAGFELGADHAVAVAGGRWHLGGLAGYTRGDRGFTGDGGGHTDSVHVGGYATYIADSGFYLDATLRASRLENDFKVAGSDGYAVKGKYRTHGVGASLEAGRRFTHADGWFLEPQAELAVFRAGGGAYRAANGLRVRDEGGSSVLGRLGLEVGKRIELAGGRQVQPYIKASVLQEFDGAGTVHTNGIAHRTELRGTRAELGLGMAAALGRGHSLYASYEYSKGPKLAMPWTFHAGYRYSW | 40 % of donors | 1.33 % of total response |  | 
5 | BrkA autotransporter (protein, UniProt Q45340 43-1010, looked up) BrkA autotransporter: QAPQPPVAGAPHAQDAGQEGEFDHRDNTLIAVFDDGVGINLDDDPDELGETAPPTLKDIHISVEHKNPMSKPAIGVRVSGAGRALTLAGSTIDATEGGIPAVVRRGGTLELDGVTVAGGEGMEPMTVSDAGSRLSVRGGVLGGEAPGVGLVRAAQGGQASIIDATLQSILGPALIADGGSISVAGGSIDMDMGPGFPPPPPPLPGAPLAAHPPLDRVAAVHAGQDGKVTLREVALRAHGPQATGVYAYMPGSEITLQGGTVSVQGDDGAGVVAGAGLLDALPPGGTVRLDGTTVSTDGANTDAVLVRGDAARAEVVNTVLRTAKSLAAGVSAQHGGRVTLRQTRIETAGAGAEGISVLGFEPQSGSGPASVDMQGGSITTTGNRAAGIALTHGSARLEGVAVRAEGSGSSAAQLANGTLVVSAGSLASAQSGAISVTDTPLKLMPGALASSTVSVRLTDGATAQGGNGVFLQQHSTIPVAVALESGALARGDIVADGNKPLDAGISLSVASGAAWHGATQVLQSATLGKGGTWVVNADSRVQDMSMRGGRVEFQAPAPEASYKTLTLQTLDGNGVFVLNTNVAAGQNDQLRVTGRADGQHRVLVRNAGGEADSRGARLGLVHTQGQGNATFRLANVGKAVDLGTWRYSLAEDPKTHVWSLQRAGQALSGAANAAVNAADLSSIALAESNALDKRLGELRLRADAGGPWARTFSERQQISNRHARAYDQTVSGLEIGLDRGWSASGGRWYAGGLLGYTYADRTYPGDGGGKVKGLHVGGYAAYVGDGGYYLDTVLRLGRYDQQYNIAGTDGGRVTADYRTSGAAWSLEGGRRFELPNDWFAEPQAEVMLWRTSGKRYRASNGLRVKVDANTATLGRLGLRFGRRIALAGGNIVQPYARLGWTQEFKSTGDVRTNGIGHAGAGRHGRVELGAGVDAALGKGHNLYASYEYAAGDRINIPWSFHAGYRYSF |  |  | 20% | 0.44%
6 | Fim 3: fimbrial protein 3, aP vaccine antigen (protein, UniProt P17835 26-204, looked up) Serotype 3 fimbrial subunit: NDGTIVITGSISDQTCVIEEPSTLNHIKVVQLPKISKNALRNDGDTAGATPFDIKLKECPQALGALKLYFEPGITTNYDTGDLIAYKQTYNASGNGNLSTVSSATKAKGVEFRLANLNGQHIRMGTDKTTQAAQTFTGKVTNGSKSYTLRYLASYVKKPKEDVDAAQITSYVGFSVVYP | 12.5 % of donors | 0.24 % of total response |  | 
7 | S-adenosylmethionine--tRNA ribosyltransferase-isomerase QueA (protein, UniProt Q7VZ81 1-347, looked up) S-adenosylmethionine:tRNA …: MPTPLTLADFDYHLPPELIAQSPAAERGGSRLLHLDAASRLHDRRFPDLAGLLRPHDLLVFNDTRVIKARLTGQKATGGKVEVLVERITAPDRALAHVRASKSPGPGMRLRLAEAFEAEVLGREGELFDLRFPAPVLDLLDAHGATPLPPYITHAADATDERRYQTVYAREPGAVAAPTAGLHFDQPMLEQLAAQGVQRAFVTLHVGAGTFQPVRVQNLAEHIMHAEWYTVPEATVAAIARARAHGGRIVAVGTTSVRALESAAAQAQDGPLAAAQGDTRLFITPGYRYRAVDALLTNFHLPQSTLLMLVSALAGVEPIRRAYAHAVAERYRFFSYGDAMFIETPAP |  |  | 17.5% | 0.27%
8 | Virulence sensor protein BvgS (protein, UniProt P16575 33-1238, looked up) Virulence sensor protein BvgS: SQELTLVGKAAVPDVEVALDGDDWRWLARKRVLTLGVYAPDIPPFDVTYGERYEGLTADYMAIIAHNLGMQAKVLRYPTREQALSALESGQIDLIGTVNGTDGRQQSLRLSVPYAADHPVIVMPIGARHVPASNLAGQRLAVDINYLPKETLARAYPQATLHYFPSSEQALAAVAYGQADVFIGDALTTSHLVSQSYFNDVRVVAPAHIATGGESFGVRADNTRLLRVVNAVLEAIPPSEHRSLIYRWGLGSSISLDFAHPAYSAREQQWMADHPVVKVAVLNLFAPFTLFRTDEQFGGISAAVLQLLQLRTGLDFEIIGVDTVEELIAKLRSGEADMAGALFVNSARESFLSFSRPYVRNGMVIVTRQDPDAPVDADHLDGRTVALVRNSAAIPLLQRRYPQAKVVTADNPSEAMLMVANGQADAVVQTQISASYYVNRYFAGKLRIASALDLPPAEIALATTRGQTELMSILNKALYSISNDELASIISRWRGSDGDPRTWYAYRNEIYLLIGLGLLSALLFLSWIVYLRRQIRQRKRAERALNDQLEFMRVLIDGTPNPIYVRDKEGRMLLCNDAYLDTFGVTADAVLGKTIPEANVVGDPALAREMHEFLLTRVAAEREPRFEDRDVTLHGRTRHVYQWTIPYGDSLGELKGIIGGWIDITERAELLRKLHDAKESADAANRAKTTFLATMSHEIRTPMNAIIGMLELALLRPTDQEPDRQSIQVAYDSARSLLELIGDILDIAKIEAGKFDLAPVRTALRVLPEGAIRVFDGLARQKGIELVLKTDIVGVDDVLIDPLRMKQVLSNLVGNAIKFTTEGQVVLAVTARPDGDAAHVQFSVSDTGCGISEADQRQLFKPFSQVGGSAEAGPAPGTGLGLSISRRLVELMGGTLVMRSAPGVGTTVSVDLRLTMVEKSVQAAPPAAATAATPSKPQVSLRVLVVDDHKPNLMLLRQQLDYLGQRVIAADSGEAALALWREHAFDVVITDCNMPGISGYELARRIRAAEAAPGYGRTRCILFGFTASAQMDEAQRCRAAGMDDCLFKPIGVDALRQRLNEAVARAALPTPPSPQAAAPATDDATPTAFSAESILALTQNDEALIRQLLEEVIRTNRADVDQLQKLHQQADWPKVSDMAHRLAGGARVVDAKAMIDTVLALEKKAQGQAGPSPEIDGLVRTLAAQSAALETQLRAWLEQRPHQDQP |  |  | 15% | 0.76%
